Source: paper PMC7734321, “Lesion Recognition and Cleavage of Damage-Containing Quadruplexes and Bulged Structures by DNA Glycosylases”

How the values were obtained:
NTH1 (endonuclease III) = molecular target: T1, NTH1 (endonuclease III) (Homo sapiens, UniProt P78549 1-304); experiment: MST; MST: 50 mM Tris-HCl pH 7.5, 50 mM KCl, 1 mM EDTA, 1 mM DTT, 7% glycerol, 25 C, 10 min, 0.5 uM DNA; authors call Kd values estimates only; settings: protein: recombinant
T1 sequence: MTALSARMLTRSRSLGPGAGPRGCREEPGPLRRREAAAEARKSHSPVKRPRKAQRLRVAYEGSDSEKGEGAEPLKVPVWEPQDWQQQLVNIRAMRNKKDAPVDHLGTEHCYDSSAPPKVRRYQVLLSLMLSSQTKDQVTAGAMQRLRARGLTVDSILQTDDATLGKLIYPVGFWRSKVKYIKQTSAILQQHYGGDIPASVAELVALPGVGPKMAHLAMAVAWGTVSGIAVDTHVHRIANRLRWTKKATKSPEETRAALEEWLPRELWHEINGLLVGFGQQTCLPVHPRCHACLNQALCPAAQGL

Nei (endonuclease VIII) = molecular target: T2, Nei (endonuclease VIII) (Escherichia coli, UniProt P50465 2-263); experiment: as above; settings: protein: recombinant, tags: none (native form without tags)
T2 sequence: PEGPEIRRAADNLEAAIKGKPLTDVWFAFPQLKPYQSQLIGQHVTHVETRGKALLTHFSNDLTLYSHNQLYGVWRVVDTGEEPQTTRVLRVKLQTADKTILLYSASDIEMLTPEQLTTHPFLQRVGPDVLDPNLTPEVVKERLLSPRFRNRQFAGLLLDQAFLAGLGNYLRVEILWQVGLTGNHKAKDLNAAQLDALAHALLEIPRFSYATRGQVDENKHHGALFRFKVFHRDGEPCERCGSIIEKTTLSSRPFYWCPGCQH

[1] = molecular target: NEIL1 (endonuclease VIII-like 1) (Homo sapiens, UniProt Q96FI4 2-390); experiment: as above; settings: protein: recombinant
NEIL1 (endonuclease VIII-like 1), sequence (Q96FI4 2-390): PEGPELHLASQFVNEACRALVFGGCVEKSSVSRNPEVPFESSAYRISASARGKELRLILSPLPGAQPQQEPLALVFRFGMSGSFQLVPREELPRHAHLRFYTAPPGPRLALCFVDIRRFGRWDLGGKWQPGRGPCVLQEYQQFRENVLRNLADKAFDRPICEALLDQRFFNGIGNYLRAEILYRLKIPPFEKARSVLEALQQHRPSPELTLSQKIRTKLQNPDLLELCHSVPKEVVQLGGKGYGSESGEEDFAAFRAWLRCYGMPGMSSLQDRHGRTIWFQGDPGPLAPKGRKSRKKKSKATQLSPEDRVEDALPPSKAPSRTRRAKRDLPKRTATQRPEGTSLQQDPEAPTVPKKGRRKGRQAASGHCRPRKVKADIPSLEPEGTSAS

[2] = molecular target: T3, Fpg (formamidopyrimidine-DNA glycosylase) (Escherichia coli, UniProt P05523 2-269); experiment: as above; settings: protein: recombinant, tags: none (native form without tags)
T3 sequence: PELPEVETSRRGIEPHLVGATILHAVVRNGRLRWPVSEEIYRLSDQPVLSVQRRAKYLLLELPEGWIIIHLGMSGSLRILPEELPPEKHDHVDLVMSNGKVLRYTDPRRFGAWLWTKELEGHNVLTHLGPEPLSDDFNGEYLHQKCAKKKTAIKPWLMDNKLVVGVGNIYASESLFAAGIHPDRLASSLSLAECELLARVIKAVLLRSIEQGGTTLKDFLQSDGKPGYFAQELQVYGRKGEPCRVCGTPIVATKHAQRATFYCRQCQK

[3] = molecular target: T4, OGG1 (8-oxoguanine-DNA glycosylase) (Homo sapiens, UniProt O15527 1-345); experiment: as above; settings: protein: recombinant
T4 sequence (O15527 whole entry): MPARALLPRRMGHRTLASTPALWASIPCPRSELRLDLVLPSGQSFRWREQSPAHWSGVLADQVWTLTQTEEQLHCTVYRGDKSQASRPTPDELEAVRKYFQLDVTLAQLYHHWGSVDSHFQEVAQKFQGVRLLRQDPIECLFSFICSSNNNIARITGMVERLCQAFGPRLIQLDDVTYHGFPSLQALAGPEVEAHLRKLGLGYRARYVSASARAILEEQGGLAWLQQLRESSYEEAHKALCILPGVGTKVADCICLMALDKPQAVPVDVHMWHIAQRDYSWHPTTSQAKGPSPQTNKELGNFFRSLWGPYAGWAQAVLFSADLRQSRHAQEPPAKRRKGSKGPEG

[4] = molecular target: T3, Fpg (formamidopyrimidine-DNA …); experiment: stopped-flow FRET; DNA bending phase before cleavage; MST: 50 mM Tris-HCl pH 7.5, 50 mM KCl, 1 mM EDTA, 1 mM DTT, 7% glycerol, 25 C, 10 min, 0.5 uM DNA; authors call Kd values estimates only; settings: protein: recombinant; tags: none (native form without tags); label: 5'-FAM on strand 1; blunt
[5] = molecular target: T4, OGG1 (8-oxoguanine-DNA glycosylase); experiment: as above; settings: protein: recombinant; label: 5'-FAM on strand 1; blunt
[6] = label: 5'-FAM on strand 2, blunt
[7] = label: 5'-FAM, 3'-BHQ1, G-quadruplex

B1: C/G (dsDNA)
DNA 1: GCTCACGTACAGAGCTG
DNA 2: CAGCTCTGTACGTGAGC
Question: What does the source list for B1?
Answer: Kd (NTH1 (endonuclease III); [6]): 0.7 ± 0.4 µM; Kd (Nei (endonuclease VIII); [6]): 3.1 ± 0.7 µM; Kd [1, 6]: 17 ± 15 µM; Kd [2, 6]: 1.6 ± 1.1 µM; Kd [3, 6]: 1.4 ± 0.5 µM

B2: Q4-oxoG (structured_DNA)
DNA: TTAGGGTTAGGGTTAGGGTTAGGGTT
modifications: G17 = 8-oxoguanine
Question: Which Kd [2, 7] does the source give for B2 here?
Answer: 1.2 ± 0.4 µM

Question: What about the Kd [3, 7] of the same binder?
Answer: 1.2 ± 0.3 µM

B3: Type I oxoG/C (dsDNA)
DNA 1: GCTCAGGTACAGAGCTG
DNA 2: CAGCTCTGTACCTGAGC
modifications: G6 of strand 1 = 8-oxoguanine, opposite C
Question: Does B3 bind [4]?
Answer: binds

Question: Does B3 bind [5]?
Answer: binds

B4: Q4-Tg (structured_DNA)
DNA: TTAGGGTTAGGGTTAGGGTTAGGGTT
modifications: T14 = thymine glycol
Question: Which results are given for B4?
Answer: Kd (NTH1 (endonuclease III); [7]): 1.3 ± 0.3 µM; Kd (Nei (endonuclease VIII); [7]): 0.8 ± 0.2 µM; Kd [1, 7]: 9.1 ± 3 µM

B5: Q4 (structured_DNA)
DNA: TTAGGGTTAGGGTTAGGGTTAGGGTT
Question: Which results are given for B5?
Answer: Kd (NTH1 (endonuclease III); G-quadruplex): 2.5 ± 0.8 µM; Kd (Nei (endonuclease VIII); G-quadruplex): 0.9 ± 0.2 µM; Kd ([1]; G-quadruplex): 3.4 ± 0.5 µM; Kd ([2]; G-quadruplex): 1 ± 0.3 µM; Kd ([3]; G-quadruplex): 0.7 ± 0.2 µM
